{"source": "patent US20190085055A1", "key": {"[1]": {"target": "D3H44 light chain S176V_T178L", "assay": "LCCA (SPR), competitor L1 WT"}, "[2]": {"target": "D3H44 light chain, wild type", "assay": "LCCA (SPR), competitor L2 S176V_T178L"}, "D3H44 light chain S176L [3]": {"target": "D3H44 light chain S176L", "assay": "LCCA (SPR), competitor L1 V133S"}, "D3H44 light chain V133S [4]": {"target": "D3H44 light chain V133S", "assay": "LCCA (SPR), competitor L2 S176L"}, "D3H44 light chain S176L [5]": {"target": "D3H44 light chain S176L", "assay": "LCCA: H1 co-expressed with L1 and L2, SPR read-out of light chain tags; competing chain L1"}, "D3H44 light chain V133S [6]": {"target": "D3H44 light chain V133S", "assay": "LCCA: H1 co-expressed with L1 and L2, SPR read-out of light chain tags; competing chain L2"}, "[7]": {"target": "D3H44 light chain L89R_F98W", "assay": "LCCA (SPR), competitor L2 WT"}, "[8]": {"target": "D3H44 light chain L89R_F98W", "assay": "LCCA (SPR), competitor L2 F98Y"}, "D3H44 light chain F98Y": {"target": "D3H44 light chain F98Y", "assay": "LCCA (SPR), competitor L1 L89R_F98W"}, "[9]": {"target": "D3H44 light chain, wild type", "assay": "LCCA (SPR), competitor L1 L89R_F98W"}, "[10]": {"target": "D3H44 light chain, wild type", "assay": "LCCA: H1 co-expressed with L1 and L2, SPR read-out of light chain tags; competing chain L1"}, "[11]": {"target": "D3H44 light chain L89R_F98W", "assay": "LCCA: H1 co-expressed with L1 and L2, SPR read-out of light chain tags; competing chain L2"}, "D3H44 light chain F98A [12]": {"target": "D3H44 light chain F98A", "assay": "LCCA (SPR), competitor L2 WT"}, "D3H44 light chain F98L [13]": {"target": "D3H44 light chain F98L", "assay": "LCCA (SPR), competitor L1 WT"}, "D3H44 light chain F98W [14]": {"target": "D3H44 light chain F98W", "assay": "LCCA (SPR), competitor L1 F98A"}, "[15]": {"target": "D3H44 light chain, wild type", "assay": "LCCA (SPR), competitor L1 F98A"}, "D3H44 light chain F98W [16]": {"target": "D3H44 light chain F98W", "assay": "LCCA (SPR), competitor L1 F98L"}, "D3H44 light chain F98A [17]": {"target": "D3H44 light chain F98A", "assay": "LCCA (SPR), competitor L2 F98W"}, "D3H44 light chain F98L [18]": {"target": "D3H44 light chain F98L", "assay": "LCCA (SPR), competitor L2 F98W"}, "[19]": {"target": "D3H44 light chain, wild type", "assay": "LCCA (SPR), competitor L2 F98L"}, "D3H44 light chain F98A [20]": {"target": "D3H44 light chain F98A", "assay": "LCCA (SPR), competitor L1 P44W"}, "D3H44 light chain F98A [21]": {"target": "D3H44 light chain F98A", "assay": "LCCA (SPR), competitor L1 Q38E"}, "D3H44 light chain F98A [22]": {"target": "D3H44 light chain F98A", "assay": "LCCA (SPR), competitor L1 Q38R"}, "D3H44 light chain P44W": {"target": "D3H44 light chain P44W", "assay": "LCCA (SPR), competitor L2 F98A"}, "D3H44 light chain Q38E": {"target": "D3H44 light chain Q38E", "assay": "LCCA (SPR), competitor L2 F98A"}, "D3H44 light chain Q38R": {"target": "D3H44 light chain Q38R", "assay": "LCCA (SPR), competitor L2 F98A"}, "D3H44 light chain F116A": {"target": "D3H44 light chain F116A", "assay": "LCCA (SPR), competitor L1 WT"}, "D3H44 light chain F98A [23]": {"target": "D3H44 light chain F98A", "assay": "LCCA (SPR), competitor L1 WT"}, "D3H44 light chain F98A [24]": {"target": "D3H44 light chain F98A", "assay": "LCCA (SPR), competitor L1 F98W"}, "D3H44 light chain F98W [25]": {"target": "D3H44 light chain F98W", "assay": "LCCA (SPR), competitor L2 F98A"}, "[26]": {"target": "tissue factor extracellular domains (human) (UniProt P13726)", "assay": "SPR, median of repeats"}, "[27]": {"target": "tissue factor extracellular domains (human) (UniProt P13726)", "assay": "SPR, TF immobilised, purified Fab as analyte, 1:1 model"}}}
{"substance": "D3H44 heavy chain (Fab format) S188I", "values": [{"measurement": "H1 L2 of H1 L1:H1 L2 (screen)", "setting": "[1]", "value": 41.9}, {"measurement": "H1 L1 of H1 L1:H1 L2 (screen)", "setting": "[2]", "value": 61.9}]}
{"substance": "D3H44 heavy chain (Fab format) S188L_V190Y", "values": [{"measurement": "H1 L2 of H1 L1:H1 L2 (screen)", "setting": "D3H44 light chain S176L [3]", "value": 7.72}, {"measurement": "H1 L2 of H1 L1:H1 L2 (verification)", "setting": "D3H44 light chain S176L [3]", "value": 12.4}, {"measurement": "H1 L1 of H1 L1:H1 L2 (screen)", "setting": "D3H44 light chain V133S [4]", "value": 90}, {"measurement": "H1 L1 of H1 L1:H1 L2 (verification)", "setting": "D3H44 light chain V133S [4]", "value": 81.2}, {"measurement": "H1 Readout (H1-L2)", "setting": "D3H44 light chain S176L [5]", "value": 24}, {"measurement": "H1 Readout (H1-L1)", "setting": "D3H44 light chain V133S [6]", "value": 83}]}
{"substance": "D3H44 heavy chain (Fab format) V37E_F100D", "values": [{"measurement": "H1 L1 of H1 L1:H1 L2 (screen)", "setting": "[7]", "value": 98.7}, {"measurement": "H1 L1 of H1 L1:H1 L2 (verification)", "setting": "[7]", "value": 119}, {"measurement": "H1 L1 of H1 L1:H1 L2 (screen)", "setting": "[8]", "value": 67.8}, {"measurement": "H1 L1 of H1 L1:H1 L2 (verification)", "setting": "[8]", "value": 76.3}, {"measurement": "H1 L2 of H1 L1:H1 L2 (screen)", "setting": "D3H44 light chain F98Y", "value": 24.4}, {"measurement": "H1 L2 of H1 L1:H1 L2 (verification)", "setting": "D3H44 light chain F98Y", "value": 18.1}, {"measurement": "H1 L2 of H1 L1:H1 L2 (screen)", "setting": "[9]", "value": 4.2}, {"measurement": "H1 L2 of H1 L1:H1 L2 (verification)", "setting": "[9]", "value": 4.5}, {"measurement": "H1 Readout (H1-L2)", "setting": "[10]", "value": 10}, {"measurement": "H1 Readout (H1-L1)", "setting": "[11]", "value": 99}]}
{"substance": "D3H44 heavy chain (Fab format) V37I", "values": [{"measurement": "H2 L1 of H2 L2:H2 L1 (screen)", "setting": "D3H44 light chain F98A [12]", "value": 28.7}, {"measurement": "H1 L2 of H1 L1:H1 L2 (screen)", "setting": "D3H44 light chain F98L [13]", "value": 7.34}, {"measurement": "H2 L2 of H2 L2:H2 L1 (screen)", "setting": "D3H44 light chain F98W [14]", "value": 66.5}, {"measurement": "H2 L2 of H2 L2:H2 L1 (screen)", "setting": "[15]", "value": 72.6}, {"measurement": "H2 L2 of H2 L2:H2 L1 (screen)", "setting": "D3H44 light chain F98W [16]", "value": 65.7}, {"measurement": "H2 L1 of H2 L2:H2 L1 (screen)", "setting": "D3H44 light chain F98A [17]", "value": 30.9}, {"measurement": "H2 L1 of H2 L2:H2 L1 (screen)", "setting": "D3H44 light chain F98L [18]", "value": 21.7}, {"measurement": "H1 L1 of H1 L1:H1 L2 (screen)", "setting": "[19]", "value": 78.5}]}
{"substance": "D3H44 heavy chain (Fab format) V37W", "values": [{"measurement": "H1 L1 of H1 L1:H1 L2 (screen)", "setting": "D3H44 light chain F98A [12]", "value": 64.1}, {"measurement": "H1 L2 of H1 L1:H1 L2 (screen)", "setting": "D3H44 light chain F98W [14]", "value": 23.5}, {"measurement": "H1 L2 of H1 L1:H1 L2 (verification)", "setting": "D3H44 light chain F98W [14]", "value": 23.4}, {"measurement": "H1 L2 of H1 L1:H1 L2 (screen)", "setting": "[15]", "value": 28.8}, {"measurement": "H2 L2 of H2 L2:H2 L1 (screen)", "setting": "D3H44 light chain F98A [20]", "value": 83.1}, {"measurement": "H2 L2 of H2 L2:H2 L1 (screen)", "setting": "D3H44 light chain F98A [21]", "value": 65.9}, {"measurement": "H2 L2 of H2 L2:H2 L1 (verification)", "setting": "D3H44 light chain F98A [21]", "value": 70.5}, {"measurement": "H2 L2 of H2 L2:H2 L1 (screen)", "setting": "D3H44 light chain F98A [22]", "value": 48.9}, {"measurement": "H2 L2 of H2 L2:H2 L1 (verification)", "setting": "D3H44 light chain F98A [22]", "value": 47.8}, {"measurement": "H2 L1 of H2 L2:H2 L1 (screen)", "setting": "D3H44 light chain P44W", "value": 9.41}, {"measurement": "H2 L1 of H2 L2:H2 L1 (screen)", "setting": "D3H44 light chain Q38E", "value": 8.05}, {"measurement": "H2 L1 of H2 L2:H2 L1 (verification)", "setting": "D3H44 light chain Q38E", "value": 10.3}, {"measurement": "H2 L1 of H2 L2:H2 L1 (screen)", "setting": "D3H44 light chain Q38R", "value": 26.8}, {"measurement": "H2 L1 of H2 L2:H2 L1 (verification)", "setting": "D3H44 light chain Q38R", "value": 26.7}, {"measurement": "H1 L1 of H1 L1:H1 L2 (screen)", "setting": "D3H44 light chain F98A [17]", "value": 62.4}, {"measurement": "H1 L1 of H1 L1:H1 L2 (verification)", "setting": "D3H44 light chain F98A [17]", "value": 61.5}]}
{"substance": "D3H44 heavy chain (Fab format), wild type", "values": [{"measurement": "H1 L2 of H1 L1:H1 L2 (screen)", "setting": "D3H44 light chain F116A", "value": 26.3}, {"measurement": "H1 L2 of H1 L1:H1 L2 (screen)", "setting": "D3H44 light chain F98A [23]", "value": 7.5}, {"measurement": "H1 L2 of H1 L1:H1 L2 (screen)", "setting": "D3H44 light chain F98L [13]", "value": 13.3}, {"measurement": "H2 L2 of H2 L2:H2 L1 (screen)", "setting": "[1]", "value": 99.4}, {"measurement": "H2 L2 of H2 L2:H2 L1 (screen)", "setting": "D3H44 light chain F98W [16]", "value": 74.2}, {"measurement": "H2 L2 of H2 L2:H2 L1 (verification)", "setting": "D3H44 light chain F98W [16]", "value": 50.8}, {"measurement": "H1 L2 of H1 L1:H1 L2 (screen)", "setting": "D3H44 light chain F98A [24]", "value": 28.7}, {"measurement": "H1 L2 of H1 L1:H1 L2 (verification)", "setting": "D3H44 light chain F98A [24]", "value": 28.7}, {"measurement": "H1 L1 of H1 L1:H1 L2 (screen)", "setting": "D3H44 light chain F98W [25]", "value": 67.1}, {"measurement": "H1 L1 of H1 L1:H1 L2 (verification)", "setting": "D3H44 light chain F98W [25]", "value": 67.1}, {"measurement": "H2 L1 of H2 L2:H2 L1 (screen)", "setting": "D3H44 light chain F98L [18]", "value": 27.8}, {"measurement": "H2 L1 of H2 L2:H2 L1 (verification)", "setting": "D3H44 light chain F98L [18]", "value": 23.6}]}
{"substance": "Wild-type anti-TF D3H44 Fab", "values": [{"measurement": "Kd", "setting": "[26]", "value": 60, "unit": "pM"}, {"measurement": "Kd", "setting": "[27]", "value": 52, "unit": "pM"}]}
